Changes are numbered by the printed parent chain. Names may count otherwise.

We go through 14 molecules from US20160376353A1 (DECIMMUNE THERAPEUTICS, published 2016).

T1: N2 peptide (non-muscle myosin neo-epitope N2 12mer sequence)
T1 construct: also called N2 12-mer peptide
T1 peptide: LMKNMDPLNDNV

B1: Chimeric 21G6, human heavy chain constant region IgG1 (wild type) (antibody, V domains shown)
VH: QVQLQQPGAELVKPGASVKLSCKASGYTFTSYYMYWVKQRPGQGLEWIGGINPSNGGTNFNEKFKSKATLTVDKSSSTAYMQLSSLTSEDSAVYYCTRWGYDREWFAYWGQGTLVTVSA
VL: DIVMTQAAPSVPVTPGESVSISCRSSKSLLHSNGNTYLYWFLQRPGQSPQVLIYRMSNLASGVPDRFSGSGSGTAFTLRISRVEAEDVGVYYCMQHLEYPFTFGSGTKLEIKR
notes: also called CHIgG1 / Ch; ch21G6 IgG1
B2: H2-21G6 / L2-21G6, wild type human IgG1 (antibody, V domains shown)
VH: QVQLVQSGAEVKKPGASVKVSCKASGYTFTSYYMYWVRQAPGQGLEWIGGINPSNGGTNFNEKFKSKATMTVDKSTSTAYMELRSLRSDDSAVYYCTRWGYDREWFAYWGQGTLVTVSS
VL: DIVMTQSPLSLPVTPGEPASISCRSSKSLLHSNGNTYLYWFLQKPGQSPQLLIYRMSNLASGVPDRFSGSGSGTDFTLKISRVEAEDVGVYYCMQHLEYPFTFGQGTKLEIKR
notes: also called H2/L2
B3: H3-21G6 / L1-21G6, human IgG1 N297Q (antibody, V domains shown)
VH: B2 VH with A16S, M70I, R84S, D89E, S91T
VL: DIVMTQSPATLSVSPGERATISCRSSKSLLHSNGNTYLYWFQQKPGQPPKVLIYRMSNLASGVPARFSGSGSGTDFTLTISSVEPEDFATYYCMQHLEYPFTFGGGTKLEIKR
notes: also called H3/L1 N297Q
B4: H2-21G6 / L2-21G6, human IgG1 N297Q (antibody, V domains shown)
VH: B2 VH
VL: B2 VL
notes: also called H2/L2 N297Q
B5: H3-21G6 / L1-21G6, wild type human IgG1 (antibody, V domains shown)
VH: B2 VH with A16S, M70I, R84S, D89E, S91T
VL: B3 VL
notes: also called H3/L1
B6: H1-21G6 / L1-21G6, wild type human IgG1 (antibody, V domains shown)
VH: B2 VH with K12V, V20L, R38K, M70L, T76A, R84S, D89E, S91T
VL: B3 VL
notes: also called H1/L1
B7: H3-21G6 / L3-21G6, wild type human IgG1 (antibody, V domains shown)
VH: B2 VH with A16S, M70I, R84S, D89E, S91T
VL: B2 VL with S7T, P12S, V13Y, E17Q
notes: also called H3/L3
B8: H3-21G6 / L2-21G6, wild type human IgG1 (antibody, V domains shown)
VH: B2 VH with A16S, M70I, R84S, D89E, S91T
VL: B2 VL
notes: also called H3/L2
B9: H1-21G6 / L2-21G6, wild type human IgG1 (antibody, V domains shown)
VH: B2 VH with K12V, V20L, R38K, M70L, T76A, R84S, D89E, S91T
VL: B2 VL
notes: also called H1/L2
B10: H2-21G6 / L1-21G6, wild type human IgG1 (antibody, V domains shown)
VH: B2 VH
VL: B3 VL
notes: also called H2/L1
B11: H2-21G6 / L3-21G6, human IgG1 N297Q (antibody, V domains shown)
VH: B2 VH
VL: B2 VL with S7T, P12S, V13Y, E17Q
notes: also called H2/L3 N297Q
B12: H2-21G6 / L3-21G6, wild type human IgG1 (antibody, V domains shown)
VH: B2 VH
VL: B2 VL with S7T, P12S, V13Y, E17Q
notes: also called H2/L3
B13: H1-21G6 / L1-21G6, human IgG1 N297Q (antibody, V domains shown)
VH: B2 VH with K12V, V20L, R38K, M70L, T76A, R84S, D89E, S91T
VL: B3 VL
notes: also called H1/L1 N297Q
B14: H1-21G6 / L3-21G6, wild type human IgG1 (antibody, V domains shown)
VH: B2 VH with K12V, V20L, R38K, M70L, T76A, R84S, D89E, S91T
VL: B2 VL with S7T, P12S, V13Y, E17Q
notes: also called H1/L3

The target in this test is T1, N2 peptide (non-muscle myosin …). Nature of the test: SPR (BIACORE X100), antibody captured by anti-human Fc, N2 peptide in solution. The text has this:
The remaining sequences represent the germline sequences with the highest homology that encode productive antibody. All of the humanized sequences maintain the murine 21G6 CDR regions which are shown inside the boxes in FIG. 1. The humanized variable regions were cloned into a vector containing wild type human IgG1, human IgG1 containing a mutation at amino acid 297 (Asn 297 to Q297), human IgG4 containing a mutation at amino acid 228 (serine to proline) and human kappa light chain. Each antibody (heavy and light) combination was expressed by transient co-transfection in 293A cells (in the presence of low Ig serum). The antibody containing supernatants were collected and analyzed for binding to the N2 peptide by ELISA and BIACORE™ X100 system. All experiments were performed using a BIACORE™ X100 system. For antibody capture experiments, a CM5 chip was prepared by 10 ul/minute injection of EDC/NHS (N-ethyl-N′-(3-dimethylaminopropyl) carbodiimide (EDC), N-hydroxysuccinimide (NHS) for 7 minutes, followed by a 10 ul/minute injection of anti-human Fc (GE Lifesciences) at a concentration of 25 ug/ml in sodium acetate at pH 5 for 3 minutes. Ethanolamine-HCl was injected for 7 minutes at 10 ul/minute. The chimeric or humanized antibodies were captured onto flow cell 2 and N2 peptide at varying concentrations was flowed over flow cells 1 and 2 at a rate of 30 ul/minute with a contact time of 120 seconds and a dissociation period of 120 seconds. Complete removal of captured antibody was accomplished by regeneration with 3M MgCl2 for 30 seconds at a flow rate of 10 ul/minute. For peptide immobilized experiments, a CM5 chip was prepared by 10 ul/minute injection of EDC/NHS (N-ethyl-N′-(3-dimethylaminopropyl) carbodiimide (EDC), N-hydroxysuccinimide (NHS) for 7 minutes, followed by a 10 ul/minute injection of NEUTRAVIDIN® protein (ThermoFisher Pierce) at a concentration of 5 ug/ml in sodium acetate, pH 5 to an immobilization response of 100-200RU. Ethanolamine-HCl was injected for 7 minutes at 10 ul/minute. Biotin-labeled N2 peptide was captured on flow channel 2 with the goal of an experimental Rmax of about 50-100RU. Purified chimeric or humanized antibodies were flowed over both flow channels at a rate of 30 ul/min for a contact time of 120 seconds and allowed to dissociate for 600 seconds.
On to B1, for which the Kd (in general, the equilibrium constant for the complex coming apart) fell in the range of 6 to 7 µM. As to B2, the Kd fell in the range of 6.4 to 8.4 µM. The result for B3 reads 20 µM; that for B4, 3.1 to 3.7 µM. As to B5, the dissociation constant Kd is 7.9 µM. Turning to B6, the Kd lay within 6.6 to 7.7 µM. Consider B7, for which the Kd turned out to be 9.38 µM. For the molecule B8, the Kd stood at 11.5 µM.

For B9, the Kd worked out at 17 µM. The result for B10 reads 9.8 to 11 µM; that for B11, 8.8 µM; that for B12, 9.56 µM. On to B13, for which the Kd worked out at 9 µM.

In the case of B14, the dissociation constant Kd worked out at 20.9 µM.
